Columns and labels:
[1] = Feeding trial in pigs: OTA concentration in plasma and urine; format: in vivo; conditions: for % OTA reduction, plasma samples / % OTA reduction, urine samples: day 14
Protocol: To further study an application of the enzymes referred to herein as additives e.g. for feed or food, feeding trials were conducted in pigs. Exemplarily, either of the enzymes having either the amino acid sequence of SEQ ID NO: 1 or 2 were produced by cultivation of E. coli transformants in bioreactors by applying methods known to a person having skill in the art. The cell broth was homogenized and centrifuged. The supernatant was concentrated, dried by lyophilization and formulated as a powder by grinding. The enzymatic activity of the thus obtained lyophilized powder was determined, and the powder was mixed with feed for the feeding trial as described in the following.
Thirteen piglet groups were studied based on the following experimental diet setups: 1) Base feed; 2) base feed+50 ppb OTA; 3) base feed+50 ppb OTA+2.62 U of the enzyme of SEQ ID NO: 1 per kg of feed; 4) base feed+50 ppb OTA+0.29 U of the enzyme of SEQ ID NO: 2 per kg of feed; 5) base feed+500 ppb OTA; 6) base feed+500 ppb OTA+2.62 U of the enzyme of SEQ ID NO: 1 per kg of feed; 7) 500 ppb OTA+0.29 U of the enzyme of SEQ ID NO: 2 per kg of feed.
Each trial group consisted of four piglets weighing approximately 7-8 kg, who were coming out from weaning and adapted to solid diet before being fed the experimental diet as described above. The duration of the feeding trial (i.e. actual days of feeding the experimental diet) was fourteen days. Collectively each trial group consumed around 15 kg of feed. No piglets fell sick to any unexpected disease throughout the feeding trial. Urine and blood samples were collected on day 0, just before starting the experimental diet, and on day 14.
Extraction of OTA was performed from plasma and urine samples for subsequent analysis by HPLC-MS. 200 μL of sample was thoroughly mixed with 800 μL of extraction solution (containing 99% of ethyl acetate and 1% of phosphoric acid, 85%) followed by centrifugation at 19000×g for 5 min for phase separation. 50 μL of upper phase was diluted with 50 μL of acetonitrile, followed by HPLC-MS analysis. The HPLC-MS method as described by Dellafiora et al. (2020, Toxins 12, 258) was used to determine the changes in OTA concentration in the samples taken during the trial upon consumption of the experimental diets. The results are shown in Table 18 using the diet setup numbering as indicated above.

[2] = Pelleting trial: degradation of spiked OTA to OTalpha in mash feed and resuspended pellets; conditions: for OTalpha %: formed OTalpha; for OTA %: remaining OTA
Protocol: To verify the suitability of the enzymes referred to herein as additives e.g. for feed or food, pelleting trials were conducted. As an example, 1.15 U or 0.06 U of either of the enzymes having either the amino acid sequence of SEQ ID NO: 1 or 2 was homogeneously mixed with one kg of mash feed and subjected to standard feed pelleting process where the temperature of the conditioner was set to either 75, 80, 85, 90 or 95° C. in five separate batches of feed pelleting. The effect of pelleting process on the stability of enzyme was estimated by calculation of percentage degradation of spiked OTA to OTalpha in resuspended pellets. Untreated mash was analyzed applying the following protocol: 50 μL of 10 ppm OTA were spiked to g of dry sample, directly before starting the assay by adding 4.95 mL RO-water (37° C.). The suspension was incubated in 50 mL tubes in an overhead shaker at 37° C. for 60 min. The reaction was stopped by adding 1 mL 6 M phosphoric acid followed by another incubation in a rotary shaker at room temperature for 10 min. Subsequently 30 μL of ^13C-labeled OTA/^13C-labeled OTalpha (each 1 ppm) internal standard were added to each sample and mixed. 30 mL ethyl acetate were added followed by shaking for 60 min at 80 rpm on an overhead shaker. After centrifugation (10 min, 3214 rcf), 8 mL of the organic upper phase were transferred to a new 50 mL tube. 4 mL of 0.1 M NaHCO3 (pH 8.2) were added. After shaking for 1 min at 80 rpm on an overhead shaker, sample was centrifuged again (10 min, 3214 rcf) and 3 mL of the aqueous lower phase transferred to a new 15 mL tube. 70 μL 85% phosphoric acid and 1.5 mL ethyl acetate were added and shaken for 1 min at 80 rpm at an overhead shaker. After centrifugation (10 min, 3214 rcf) 50 μL organic upper phase were added to 50 μL acetonitrile in a silanized HPLC vial and thoroughly mixed. OTA and OTalpha content was determined by HPLC MS/MS method as described by Dellafiora et al. (2020, Toxins 12, 258) to determine the percentage of OTA degradation to form OTalpha.

[3] = 500 ppb OTA+enzyme (2.62 U SEQ ID NO: 1 or 0.29 U SEQ ID NO: 2 per kg of feed)
[4] = base feed+50 ppb OTA+enzyme (2.62 U SEQ ID NO: 1 or 0.29 U SEQ ID NO: 2 per kg of feed)
[5] = mash before pelleting, 1.15 U or 0.06 U enzyme per kg mash feed, 37° C., 60 min

Molecule | OTA concentration in plasma samples, Day 14 [1, 3] | OTA concentration in urine samples, Day 14 [1, 3] | % OTA reduction, plasma samples [1, 3] | % OTA reduction, urine samples [1, 3] | OTA concentration in plasma samples, Day 14 [1, 4] | OTA concentration in urine samples, Day 14 [1, 4] | % OTA reduction, plasma samples [1, 4] | % OTA reduction, urine samples [1, 4] | OTalpha % ([2]; after pelleting at 75° C.) | OTalpha % ([2]; after pelleting at 80° C.) | OTalpha % ([2]; after pelleting at 85° C.) | OTalpha % ([2]; after pelleting at 90° C.) | OTalpha % ([2]; after pelleting at 95° C.) | OTalpha % [2, 5] | OTA % ([2]; after pelleting at 75° C.) | OTA % ([2]; after pelleting at 80° C.) | OTA % ([2]; after pelleting at 85° C.) | OTA % ([2]; after pelleting at 90° C.) | OTA % ([2]; after pelleting at 95° C.) | OTA % [2, 5]
SEQ ID NO: 1: mature species of exemplary OTA-hydrolyzing polypeptide 1, amidohydrolase family; lacks N-terminal amino acids 1-24 of SEQ ID NO: 318 (protein, polypeptide 1) APAAPHTVVLRAARMFDGASGKLVDHPQLTIVGNKIVRIAQGDKAEVPAGAEVVDLGDATLLPGFIDAHVHLSGQSSDNWYGDFFDNMMRFPAEQALYGAYYARITLEAGFTSVRDVGSTDWVALGLRNAIDAGKVPGPRMLVSNYAVGSTGGHADQDPIPPHKLPLAGPLQGVCNGPEECRAAVRYQIKYGANVIKFMPSGGVLSLSDPVDAPELSQDEMNAVIGESHAWGRKVAAHAHGDKAAKMAVAAGVDSIEHGSFIEDDTLRAMKAKNVYLVPTISAIAHVEEKIGTFPPVIAEKGRAAAAHLRQTFRHAVQIGVPIALGTDAGVGAHGSNAREFRYMVENGLTPAQALLAGTANAARLLGTFDRVGTLEAGKLADVVAVPGNPIADITVTERPLFVMKDGVVVRRDAVR | 168 ± 41 ppb | 7 ± 1 ppb | 59% | 65% | 19 ± 2 ppb | 0 ppb | 54% | 100% | 99% | 99% | 99% | 99% | 99% | 99% | 1% | 1% | 1% | 1% | 1% | 1%
SEQ ID NO: 2: exemplary OTA-hydrolyzing polypeptide 2 belonging to the amidohydrolase protein family (protein, polypeptide 2, exemplary OTA-hydrolyzing polypeptide 2 belonging to the amidohydrolase protein family) MYSLAIRNGIVFDGEKFIGKTNIYVDGDKIVKITNERLDAKEEVNAEGYFVMPGLIDAHLHLTGIRGGSLLMGYLLDDPRTRLLRAANWARELLMAGFTTVRDCGEPNSIILRNAINEGIIPGPRIIAAGSPITQTFGHAELSHSLPLEWSIQLGFGEICDGVDECIKAARKVLRSGADFIKIMATGGVLSERDRPEWPQLTPEEMSAIVREAEKVGTYVAAHAHGDKGARIAVEAGVRTIEHGSLITEETVKLMAEKGVSLTPTLSIQELIYKYGKQMGIDPWGLEKIGQVREGVINSIKLARKYGVMILAGTDLGFKTGLDIDMGKNWVEVKLLVELGGLSSEEALRAATGNASKMLRLNTGIIREGYLADIVLINGNPLENINDIARVSTVIKGGKVTVENGKLI | 107 ± 31 ppb | 4 ppb | 74% | 80% | 11 ± 3 ppb | 0 ppb | 73% | 100% | 84% | 88% | 84% | 88% | 87% | 80% | 16% | 12% | 16% | 12% | 13% | 20%
